# Source: PMC5324060, “Evolutionary, computational, and biochemical studies of the salicylaldehyde dehydrogenases in the naphthalene degradation pathway” (Scientific Reports, 2017)
# Where two headings read alike, the source gives them in different places.
# Assays:
# [1] = target: SALDan (Alteromonas naphthalenivorans, UniProt F5Z5S7); test: Kinetics assay of wild-type recombinant SALDan (NADH appearance at 340 nm); type: biochemical; conditions: for App Vmax / App kcat / Km: aldehyde varied at NAD^+ 100 μM, enzyme 0.1 μM, for NAD^+: SAL fixed 50 μM; for Km: NAD^+ 0–500 μM, read-out: App Km
# Method: (§1) The activity of the purified proteins was determined using SAL as a substrate. A reaction volume of 500 μL was prepared in a microfuge tube containing purified SALDan (0.1 μM), SAL (100 μM), and NAD^+ (100 μM) dissolved in 50 mM HEPES (pH 7.5) containing 150 mM NaCl. The SALDan activity was monitored as the rate of appearance of NADH at 340 nm spectrophotometrically. The specific activity of the enzyme (units.mg^−1.min^−1) was expressed as the amount of enzyme required to produce 1 μM of NADH under the assay conditions. The influence of pH on the activity was determined using the protocol described above, with the exception of replacing the […] buffer with 50 mM sodium acetate (pH 3.0–5.0), 50 mM 2-(N-morpholino)ethanesulfonic acid (pH 5.0–7.5), 50 mM HEPES (pH 8.0–8.5), 50 mM glycine (pH 9.0–10.0), or 50 mM sodium phosphate (pH 11.0)[52]. All assays were performed at the optimal temperature. To determine the influence of temperature on the enzymatic activity, the reactions were performed at 15, 20, 25, 30, 35, 40, and 45 °C, respectively.
# (§2) For kinetic studies of aldehydes, the initial velocities of the enzymatic reactions were examined by varying the concentrations of various aromatic as well as aliphatic aldehydes in the presence of NAD^+ (100 μM) and the enzyme (0.1 μM) under optimal conditions. For substrates that absorb at 340 nm, thus interfering with the calculation of the initial rate, their molar coefficients (ε) were calculated as described previously[64] and are presented in Table S1. The apparent kinetic parameters were calculated using the equation: […]
# (§3) The apparent kinetic parameters for NAD^+ were determined at a fixed concentration of SAL (50 μM) and a varying concentration of NAD^+ (0–500 μM). The apparent Km and Vmax values were calculated by using the equation: […]
# (§4) All the activity data were determined by three separate experiments with at least three technical replicates.
# [2] = substrate: O=Cc1ccccc1O; test: Kinetics assay of SALDan mutant N149A; type: biochemical, Alteromonas naphthalenivorans; conditions: other: N149A mutant; SAL varied at NAD^+ 100 μM; NAD^+ varied at SAL 50 μM
# Source text: (§5) The primers used for the single amino acid mutant were as follows: N149A, forward primer, 5′-ATAGCACCGTGGGCCGGGCCTATTGTATTA-3′; reverse primer, 5′-TAATACAATAGGCCCGGCCCACGGTGCTAT-3′; V153A, forward primer, 5′-AATGGGCCTATTGTATTAGCGGCTCGG-3′; reverse primer, 5′-CCGAGCCGCTAATACAATAGGCCCATT-3′; E175A, forward primer, 5′-[…]-3′, reverse primer, 5′-GTTGGGACAGTCTTCCAGCCC-3′; E175A, forward primer, 5′-ATGCTCCACCAAATTGGGCAC-3′; reverse primer, 5′-TTTAGGACTTACTTCTGAAGCTTTAAA-3′. The PCR was performed using Pfu polymerase, and the cycling parameters were: 95 °C for 5 min (one cycle), 95 °C for 30 s, and 68 °C for 12 min (12 cycles). After amplification, the PCR mixture was digested with DpnI and then transformed into E. coli BL21(DE3) by electroporation. The mutants were confirmed by DNA sequencing.
# as §1, §2, §3, §4
# [3] = substrate: NC(=O)c1ccc[n+]([C@@H]2O[C@H](COP(=O)([O-])OP(=O)(O)OC[C@H]3O[C@@H](n4cnc5c(N)ncnc54)[C@H](O)[C@@H]3O)[C@@H](O)[C@H]2O)c1; test: Kinetics assay of SALDan mutant N149A; type: biochemical, Alteromonas naphthalenivorans; conditions: other: N149A mutant; SAL varied at NAD^+ 100 μM; NAD^+ varied at SAL 50 μM
# Source text: as §5, §1, §2, §3, §4
# [4] = substrate: O=Cc1ccccc1O; test: Kinetics assay of SALDan mutant V153A; type: biochemical, Alteromonas naphthalenivorans; conditions: other: V153A mutant; SAL varied at NAD^+ 100 μM; NAD^+ varied at SAL 50 μM
# Source text: as §5, §1, §2, §3, §4
# [5] = substrate: NC(=O)c1ccc[n+]([C@@H]2O[C@H](COP(=O)([O-])OP(=O)(O)OC[C@H]3O[C@@H](n4cnc5c(N)ncnc54)[C@H](O)[C@@H]3O)[C@@H](O)[C@H]2O)c1; test: Kinetics assay of SALDan mutant V153A; type: biochemical, Alteromonas naphthalenivorans; conditions: other: V153A mutant; SAL varied at NAD^+ 100 μM; NAD^+ varied at SAL 50 μM
# Source text: as §5, §1, §2, §3, §4
# [6] = wild-type, “—” means not observed, read-out: App Ki (substrate inhibition)
# SALDan, sequence (F5Z5S7 entry or part of it): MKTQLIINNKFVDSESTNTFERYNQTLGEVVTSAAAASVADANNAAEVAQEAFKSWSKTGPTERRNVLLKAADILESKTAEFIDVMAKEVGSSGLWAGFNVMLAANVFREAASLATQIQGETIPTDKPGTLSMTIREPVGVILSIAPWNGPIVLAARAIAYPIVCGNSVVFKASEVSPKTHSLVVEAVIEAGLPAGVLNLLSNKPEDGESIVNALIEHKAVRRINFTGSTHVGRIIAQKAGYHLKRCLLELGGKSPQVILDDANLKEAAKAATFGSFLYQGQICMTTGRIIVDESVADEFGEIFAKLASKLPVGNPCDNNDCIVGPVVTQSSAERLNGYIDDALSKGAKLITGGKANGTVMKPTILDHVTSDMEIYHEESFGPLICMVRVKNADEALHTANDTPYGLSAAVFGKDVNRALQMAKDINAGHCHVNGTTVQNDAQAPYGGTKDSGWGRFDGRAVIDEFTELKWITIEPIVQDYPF
molecule,measurement,setting,value
O=Cc1cccc(Cl)c1 [3-Chlorobenzaldehyde],Ki,[1]; [6],124 ± 20.1 µM
O=Cc1ccc2ccccc2c1 [2-Naphthaldehyde],Ki,[1]; [6],249 ± 22.5 µM
CCCC=O [Butyraldehyde],App Vmax,[1]; wild-type,5.9 ± 1.0 U/mg
same,App kcat,[1]; wild-type,14.3 ± 2.8 s⁻¹
same,Km,[1]; wild-type,3200 ± 235 µM
O=Cc1ccc([N+](=O)[O-])cc1 [4-Nitrobenzaldehyde],Ki,[1]; [6],266 ± 35.8 µM
C=O [Formaldehyde],App Vmax,[1]; wild-type,3.3 ± 0.7 U/mg
same,App kcat,[1]; wild-type,8.6 ± 2.2 s⁻¹
same,Km,[1]; wild-type,12400 ± 1820 µM
O=Cc1ccc(Cl)cc1 [4-Chlorobenzaldehyde],Ki,[1]; [6],132 ± 18.9 µM
O=Cc1ccccc1 [Benzaldehyde],Ki,[1],563 ± 87.6 µM
O=Cc1ccccc1Cl [2-Chlorobenzaldehyde],Ki,[1],356 ± 40.1 µM
SALDan N149A (Alteromonas naphthalenivorans; N149A) (protein) MKTQLIINNKFVDSESTNTFERYNQTLGEVVTSAAAASVADANNAAEVAQEAFKSWSKTGPTERRNVLLKAADILESKTAEFIDVMAKEVGSSGLWAGFNVMLAANVFREAASLATQIQGETIPTDKPGTLSMTIREPVGVILSIAPWAGPIVLAARAIAYPIVCGNSVVFKASEVSPKTHSLVVEAVIEAGLPAGVLNLLSNKPEDGESIVNALIEHKAVRRINFTGSTHVGRIIAQKAGYHLKRCLLELGGKSPQVILDDANLKEAAKAATFGSFLYQGQICMTTGRIIVDESVADEFGEIFAKLASKLPVGNPCDNNDCIVGPVVTQSSAERLNGYIDDALSKGAKLITGGKANGTVMKPTILDHVTSDMEIYHEESFGPLICMVRVKNADEALHTANDTPYGLSAAVFGKDVNRALQMAKDINAGHCHVNGTTVQNDAQAPYGGTKDSGWGRFDGRAVIDEFTELKWITIEPIVQDYPF,Km,[2],9.5 ± 1.3 µM
same,Vmax,[2],38.6 µmol/min/mg
same,kcat,[2],100 ± 16.8 s⁻¹
same,kcat/Km,[2],1.06e+07 ± 1.3e+06 M⁻¹ s⁻¹
same,Km,[3],52.3 ± 6.1 µM
same,Vmax,[3],83.5 µmol/min/mg
same,kcat,[3],209 ± 25.6 s⁻¹
same,kcat/Km,[3],4e+06 ± 800000 M⁻¹ s⁻¹
SALDan V153A (Alteromonas naphthalenivorans; V153A) (protein) MKTQLIINNKFVDSESTNTFERYNQTLGEVVTSAAAASVADANNAAEVAQEAFKSWSKTGPTERRNVLLKAADILESKTAEFIDVMAKEVGSSGLWAGFNVMLAANVFREAASLATQIQGETIPTDKPGTLSMTIREPVGVILSIAPWNGPIALAARAIAYPIVCGNSVVFKASEVSPKTHSLVVEAVIEAGLPAGVLNLLSNKPEDGESIVNALIEHKAVRRINFTGSTHVGRIIAQKAGYHLKRCLLELGGKSPQVILDDANLKEAAKAATFGSFLYQGQICMTTGRIIVDESVADEFGEIFAKLASKLPVGNPCDNNDCIVGPVVTQSSAERLNGYIDDALSKGAKLITGGKANGTVMKPTILDHVTSDMEIYHEESFGPLICMVRVKNADEALHTANDTPYGLSAAVFGKDVNRALQMAKDINAGHCHVNGTTVQNDAQAPYGGTKDSGWGRFDGRAVIDEFTELKWITIEPIVQDYPF,Km,[4],4.6 ± 0.7 µM
same,Vmax,[4],59.5 µmol/min/mg
same,kcat,[4],154 ± 20.4 s⁻¹
same,kcat/Km,[4],3.34e+07 ± 4.7e+06 M⁻¹ s⁻¹
same,Km,[5],44.9 ± 4.2 µM
same,Vmax,[5],103 µmol/min/mg
same,kcat,[5],254 ± 21.5 s⁻¹
same,kcat/Km,[5],5.7e+06 ± 500000 M⁻¹ s⁻¹
